# Reference: US20250264455
# T1: P2-TmEnc^BC2-Tag
# T1 chain: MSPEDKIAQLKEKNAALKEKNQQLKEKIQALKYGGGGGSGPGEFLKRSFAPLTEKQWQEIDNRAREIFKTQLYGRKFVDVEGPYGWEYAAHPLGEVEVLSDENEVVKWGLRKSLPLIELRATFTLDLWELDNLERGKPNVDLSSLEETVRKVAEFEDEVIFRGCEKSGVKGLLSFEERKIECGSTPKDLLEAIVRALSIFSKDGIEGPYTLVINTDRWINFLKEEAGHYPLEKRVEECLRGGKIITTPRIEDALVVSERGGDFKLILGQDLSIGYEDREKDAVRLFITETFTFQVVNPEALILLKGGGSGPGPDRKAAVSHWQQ
# B1: BmTyr-P1 (protein)
# chain: MGHSNKYRVRKNVLHLTDTEKRDFVRTVLILKEKGIYDRYIAWHGAAGKFHTPPGSDRNAAHMSSAFLPWHREYLLRFERDLQSINPEVTLPYWEWETDAQMQDPSQSQIWSADFMGGNGNPIKDFIVDTGPFAAGRWTTIDEQGNPSGGLKRNFGATKEAPTLPTRDDVLNALKITQYDTPPWDMTSQNSFRNQLEGFINGPQLHNRVHRWVGGQMGVVPTAPNDPVFFLHHANVDRIWAVWQIIHRNQNYQPMKNGPFGQNFRDPMYPWNTTPEDVMNHRKLGYVYDIELRKSKRSSGGGGSGGGGSTGSPEDEIQALEEENAQLEQENAALEEEIAQLEYGSGSETPGTSESATPESAISHGFPPEVEEQAAGTLPMSCAQESGMDRHPAACASARINV
# Biological target: T1, P2-TmEnc^BC2-Tag
protein,measurement,value
B1,melanin formation on CN-PAGE,melanin formation could be demonstrated by color formation on CN-PAGE
same,melanin formation on clear native PAGE,The dark high molecular weight bands at 1.0 MDa represent melanin-loaded TmEnc nanospheres
